The record followed here is PMC12234153.

The target in this test is STAT3 (UniProt P42227). Description: anti-FLAG co-IP, anti-HA blot. To be noted: reference: wild type SMAD2-FLAG; sites S255.

SMAD2 (from UniProt Q15796) S255A: the “binding against the reference” value was “weaker”.
